Measured values: patent publication US20230227584A1 (published 2023)
Positions count from the first letter of the chain named. One block for each binder: values may come before it.

Legend:
[1] = target: human FAP (soluble second analyte, SPR) (human, UniProt Q12884 26-760); experiment: SPR (Biacore T200), biotinylated human GITR Fc(kih) on SA chip, bispecific at 200 nM, then human FAP at 500 nM
Method: The capacity of binding simultaneously human GITR Fc(kih) and human FAP can be assessed by surface plasmon resonance (SPR). All SPR experiments are performed on a Biacore T200 at 25° C. with HBS-EP as running buffer (0.01 M HEPES pH 7.4, 0.15 M NaCl, 3 mM EDTA, 0.005% Surfactant P20, Biacore, Freiburg/Germany). […] Immobilization levels up to 1000 resonance units (RU) are used. The bispecific antibodies targeting GITR and FAP are passed at a concentration range of 200 nM with a flow of 30 µL/minute through the flow cells over 90 seconds and dissociation was set to zero sec. Human FAP is injected as second analyte with a flow of 30 µL/minute through the flow cells over 90 seconds at a concentration of 500 nM. The dissociation is monitored for 120 sec. Bulk refractive index differences are corrected for by subtracting the response obtained in a reference flow cell, where no protein is immobilized.

[2] = target: T1, human OX40 on the cell surface (activated human T cells; HeLa_hOx40_NFkB_Luc1 reporter cells) (human, UniProt P43489 29-277); experiment: cell-based or functional assay
T1 sequence: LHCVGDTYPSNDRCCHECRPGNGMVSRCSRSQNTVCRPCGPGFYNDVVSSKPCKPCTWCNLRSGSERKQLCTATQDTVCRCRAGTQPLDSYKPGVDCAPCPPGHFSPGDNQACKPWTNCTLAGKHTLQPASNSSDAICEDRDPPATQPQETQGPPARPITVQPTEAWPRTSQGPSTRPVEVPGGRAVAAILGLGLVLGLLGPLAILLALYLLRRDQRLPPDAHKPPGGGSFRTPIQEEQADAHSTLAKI

[3] = target: T1, human OX40 on the cell surface …; experiment: cell-based or functional assay; remark: listed apart in the source
[4] = target: T2, human fibroblast activation protein (huFAP) on NIH/3T3-huFAP clone 19 cells (human, UniProt Q12884 1-760); experiment: flow cytometry, NIH/3T3-huFAP clone 19 cells
T2 construct: Mouse NIH/3T3 fibroblasts transfected with vector pETR4921 to express huFAP; also called cell surface FAP
Method: In another experiment, a mixture of 2 × 10⁵ NIH/3T3-huFAP clone 19 cells and HeLa cells in FACS buffer were added to each well of a round-bottom 96-well plates (TPP, Cat. No. 92097) and the binding assay was performed. Cells were first stained 20 min with LIVE/DEAD™ Fixable Aqua Dead Cell Stain (Molecular probes, Cat.No. L34957) in DPBS, followed after one washing step with 200 µL 4° C. […] Afterwards the cells were washed once with 200 µL FACS buffer at 4° C. and resuspended by a short vortex. Cells were further stained with 50 µL/well of 4° C. cold secondary antibody solution containing Phycoerythrin (PE)-conjugated AffiniPure anti-human IgG Fcy-fragment-specific goat IgG F(ab′)2 fragment (Jackson ImmunoResearch, Cat. No. 109-116-098) and incubated for 30 minutes at 4° C. in the dark. Samples were finally resuspended in 100 µL/well FACS-buffer and acquired the same day using with BD Fortessa running FACS Diva software.

[5] = target: T1, human OX40 on the cell surface …; experiment: flow cytometry, activated human PBMC gated on CD4+ T cells
[6] = target: T3, FcRn (biotinylated, coupled to streptavidin-sepharose); experiment: FcRn affinity chromatography; retention compared to protein standards with known affinities
T3 construct: also called neonatal Fc receptor
Method: For coupling, the prepared receptor was added to streptavidin-sepharose (GE Healthcare). The resulting FcRn-sepharose matrix was packed in a column housing. The column was equilibrated with 20 mM 2-(N-morpholine)-ethanesulfonic acid (MES) and 140 mM NaCl, pH 5.5 (eluent A) at a 0.5 ml/min flow rate. 30 µg of antibody samples were diluted at a volume ratio of 1: 1 with eluent A and applied to the FcRn column. The column was washed with 5 column volumes of eluent A followed by elution with a linear gradient from 20 to 100% 20 mM Tris/HCl and 140 mM NaCl, pH 8.8 (eluent B) in 35 column volumes. The analysis was performed with a column oven at 25° C. The elution profile was monitored by continuous measurement of the absorbance at 280 nm. Retention times were compared to protein standards with known affinities.

binding result [1]: binds
B1: P1AE1116 GITR(852.2) x FAP (4B9) (2+1) C-terminal crossfab fusion (bispecific antibody, human IgG1, kappa, L234A L235A)
heavy 1: not shown
heavy 2: EVQLVESGGGLVQPGGSLRLSCAASGFTFSSYTMKWVRQTPGKGLEWVSVISADGGTTDHAASVKGRFTVSRDNSKNMLYLQMNSLRAEDTAIYYCAKDRANDWITGASFDYWGQGALVTVSSASTKGPSVFPLAPSSKSTSGGTAALGCLVEDYFPEPVTVSWNSGALTSGVHTFPAVLQSSGLYSLSSVVTVPSSSLGTQTYICNVNHKPSNTKVDEKVEPKSCDKTHTCPPCPAPEAAGGPSVFLFPPKPKDTLMISRTPEVTCVVVDVSHEDPEVKFNWYVDGVEVHNAKTKPREEQYNSTYRVVSVLTVLHQDWLNGKEYKCKVSNKALGAPIEKTISKAKGQPREPQVCTLPPSRDELTKNQVSLSCAVKGFYPSDIAVEWESNGQPENNYKTTPPVLDSDGSFFLVSKLTVDKSRWQQGNVFSCSVMHEALHNHYTQKSLSLSP
light 1: DIQMTQSPSSLSASVGDRVTITCRASQSINSYLNWYQQKPGNAPKLLIYAASSLQSGVPSRFSGSGSGTEFTLTISSLQPEDLATYYCQQARSFPLTFGGGTKVEIKRTVAAPSVFIFPPSDRKLKSGTASVVCLLNNFYPREAKVQWKVDNALQSGNSQESVTEQDSKDSTYSLSSTLTLSKADYEKHKVYACEVTHQGLSSPVTKSFNRGEC
light 2: EIVLTQSPGTLSLSPGERATLSCRASQSVTSSYLAWYQQKPGQAPRLLINVGSRRATGIPDRFSGSGSGTDFTLTISRLEPEDFAVYYCQQGIMLPPTFGQGTKVEIKSSASTKGPSVFPLAPSSKSTSGGTAALGCLVKDYFPEPVTVSWNSGALTSGVHTFPAVLQSSGLYSLSSVVTVPSSSLGTQTYICNVNHKPSNTKVDKKVEPKSC
notes: 2+1 format; Human IgG1 Fc, knob-into-hole, PGLALA; VL-CH1 chain ends in EPKSC

binding result [1]: binds
B2: P1AG1036 GITR(852.2) x FAP (4B9_EPKSCS) (2+1) C-terminal crossfab fusion (bispecific antibody, human IgG1, kappa, L234A L235A)
heavy 1: not shown
heavy 2: B1 heavy 2
light 1: B1 light 1
light 2: EIVLTQSPGTLSLSPGERATLSCRASQSVTSSYLAWYQQKPGQAPRLLINVGSRRATGIPDRFSGSGSGTDFTLTISRLEPEDFAVYYCQQGIMLPPTFGQGTKVEIKSSASTKGPSVFPLAPSSKSTSGGTAALGCLVKDYFPEPVTVSWNSGALTSGVHTFPAVLQSSGLYSLSSVVTVPSSSLGTQTYICNVNHKPSNTKVDKKVEPKSCS
notes: 2+1 format; Human IgG1 Fc, knob-into-hole, PGLALA; VL-CH1 chain ends in EPKSCS

binding result [1]: binds
B3: P1AG1039 GITR(852.2) x FAP (4B9_EPKSCG) (2+1) C-terminal crossfab fusion (bispecific antibody, human IgG1, kappa, L234A L235A)
heavy 1: not shown
heavy 2: B1 heavy 2
light 1: B1 light 1
light 2: B2 light 2 with S214G
notes: 2+1 format; Human IgG1 Fc, knob-into-hole, PGLALA; VL-CH1 chain ends in EPKSCG

EC50 of NFκB activation (luciferase), HeLa_hOx40_NFkB_Luc1, w/ hu FAP [2]: 0.31 nM | EC50 of NFκB activation (luciferase), HeLa_hOx40_NFkB_Luc1, w/o [2]: 3.94 nM | CD25 upregulation on CD4+ T cells, AUC compared to reference compound [%] [3]: 100% | EC50 of CD25 upregulation on CD4+ T cells, suboptimal TCR stimulation of human PBMC with NIH/3T3-huFAP cells [3]: 0.02 nM | EC50 [4]: 2.7 nM | EC50 [5]: 0.69 nM | FcRn affinity [6]: -0.22
B4: P1AE8875 OX40(MOXR0916) x FAP(1G1a) 3+1 (bispecific antibody, human IgG1, kappa, L234A L235A)
heavy 1: not shown
heavy 2: EVQLVQSGAEVKKPGASVKVSCKASGYTFTDSYMSWVRQAPGQGLEWIGDMYPDNGDSSYNQKFRERVTITRDTSTSTAYLELSSLRSEDTAVYYCVLAPRWYFSVWGQGTLVTVSSASTKGPSVFPLAPSSKSTSGGTAALGCLVEDYFPEPVTVSWNSGALTSGVHTFPAVLQSSGLYSLSSVVTVPSSSLGTQTYICNVNHKPSNTKVDEKVEPKSCGGGGSGGSGGEVQLVQSGAEVKKPGASVKVSCKASGYTFTDSYMSWVRQAPGQGLEWIGDMYPDNGDSSYNQKFRERVTITRDTSTSTAYLELSSLRSEDTAVYYCVLAPRWYFSVWGQGTLVTVSSASTKGPSVFPLAPSSKSTSGGTAALGCLVEDYFPEPVTVSWNSGALTSGVHTFPAVLQSSGLYSLSSVVTVPSSSLGTQTYICNVNHKPSNTKVDEKVEPKSCDKTHTCPPCPAPEAAGGPSVFLFPPKPKDTLMISRTPEVTCVVVDVSHEDPEVKFNWYVDGVEVHNAKTKPREEQYNSTYRVVSVLTVLHQDWLNGKEYKCKVSNKALGAPIEKTISKAKGQPREPQVCTLPPSRDELTKNQVSLSCAVKGFYPSDIAVEWESNGQPENNYKTTPPVLDSDGSFFLVSKLTVDKSRWQQGNVFSCSVMHEALHNHYTQKSLSLSP
light 1: not shown
light 2: EIVLTQSPATLSLSPGERATLSCRASESVDNYGLSFINWFQQKPGQAPRLLIYGTSNRGSGIPARFSGSGSGTDFTLTISSLEPEDFAVYFCQQSNEVPYTFGGGTKVEIKSSASTKGPSVFPLAPSSKSTSGGTAALGCLVKDYFPEPVTVSWNSGALTSGVHTFPAVLQSSGLYSLSSVVTVPSSSLGTQTYICNVNHKPSNTKVDKKVEPKSC
notes: (2+1)', but its chains are those of a MOXR0916 3+1 molecule ending in EPKSC; Human IgG1 Fc, knob-into-hole, PGLALA; also called MOX0916 3+1; MOXR0916 3+1
